Test results from paper PMC10397247.

Columns and labels:
APC4264-AA = target: T1, APC4264-AA; assay: two-hybrid library CCmax; conditions: mean of both orientations;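 further: natural log of median RNA to DNA barcode read ratio; higher means stronger binding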
T1 chain: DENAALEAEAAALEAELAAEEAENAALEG

APC9096-AA = target: T2, APC9096-AA; assay: two-hybrid library CCmax; conditions: mean of both orientations;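 further: natural log of median RNA to DNA barcode read ratio; higher means stronger binding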
T2 chain: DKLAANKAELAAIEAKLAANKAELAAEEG

APC9319-AA = target: T3, APC9319-AA; assay: two-hybrid library CCmax; conditions: mean of both orientations;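 further: natural log of median RNA to DNA barcode read ratio; higher means stronger binding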
T3 chain: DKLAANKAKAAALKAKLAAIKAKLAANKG

APC232-AA = target: T4, APC232-AA; assay: two-hybrid library CCmax; conditions: mean of both orientations;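 further: natural log of median RNA to DNA barcode read ratio; higher means stronger binding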
T4 chain: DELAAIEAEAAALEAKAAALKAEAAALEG

4H733-AA = target: T5, 4H733-AA; assay: two-hybrid library CCmax
T5 chain: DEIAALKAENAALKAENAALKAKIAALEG

4H807-AA = target: T6, 4H807-AA; assay: two-hybrid library CCmax; conditions: mean of both orientations
T6 chain: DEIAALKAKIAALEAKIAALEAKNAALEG

APC4436-AA = target: T7, APC4436-AA; assay: two-hybrid library CCmax; conditions: mean of both orientations
T7 chain: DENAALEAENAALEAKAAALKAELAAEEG

APC3645-AA = target: T8, APC3645-AA; assay: two-hybrid library CCmax; conditions: mean of both orientations
T8 chain: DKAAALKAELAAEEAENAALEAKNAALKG

APC2237-AA = target: T9, APC2237-AA; assay: two-hybrid library CCmax; conditions: mean of both orientations
T9 chain: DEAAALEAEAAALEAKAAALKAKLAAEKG

APC2405-AA = target: T10, APC2405-AA; assay: two-hybrid library CCmax; conditions: mean of both orientations
T10 chain: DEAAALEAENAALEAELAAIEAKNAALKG

APC7099-AA = target: T11, APC7099-AA; assay: two-hybrid library CCmax; conditions: mean of both orientations
T11 chain: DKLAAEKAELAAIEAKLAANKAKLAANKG

APC4011-AA = target: T12, APC4011-AA; assay: two-hybrid library CCmax; conditions: mean of both orientations
T12 chain: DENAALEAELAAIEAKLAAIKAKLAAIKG

APC1015-AA = target: T13, APC1015-AA; assay: two-hybrid library CCmax; conditions: mean of both orientations
T13 chain: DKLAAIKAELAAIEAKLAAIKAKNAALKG

APC5383-AA = target: T14, APC5383-AA; assay: two-hybrid library CCmax; conditions: mean of both orientations
T14 chain: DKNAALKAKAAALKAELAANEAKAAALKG

APC8191-AA = target: T15, APC8191-AA; assay: two-hybrid library CCmax; conditions: mean of both orientations
T15 chain: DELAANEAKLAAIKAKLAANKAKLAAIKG

APC8910-AA = target: T16, APC8910-AA; assay: two-hybrid library CCmax; conditions: mean of both orientations
T16 chain: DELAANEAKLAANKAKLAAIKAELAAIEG

APC1434-AA = target: T17, APC1434-AA; assay: two-hybrid library CCmax; conditions: mean of both orientations
T17 chain: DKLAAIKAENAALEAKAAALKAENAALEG

APC6108-AA = target: T18, APC6108-AA; assay: two-hybrid library CCmax; conditions: mean of both orientations
T18 chain: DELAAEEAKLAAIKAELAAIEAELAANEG

P6A-bS = target: T19, P6A-bS; assay: two-hybrid library CCNG1
T19 chain: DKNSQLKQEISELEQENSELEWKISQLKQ

4H953-bN = target: T20, 4H953-bN; assay: two-hybrid library CCNG1
T20 chain: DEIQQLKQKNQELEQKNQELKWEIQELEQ

4H797-bN = target: T21, 4H797-bN; assay: two-hybrid library CCNG1
T21 chain: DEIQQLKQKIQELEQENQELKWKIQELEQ

4H717-bN = target: T22, 4H717-bN; assay: two-hybrid library CCNG1
T22 chain: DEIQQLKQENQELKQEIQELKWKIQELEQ

4H462-bN = target: T23, 4H462-bN; assay: two-hybrid library CCNG1
T23 chain: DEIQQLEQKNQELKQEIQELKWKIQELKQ

4H568-bN = target: T24, 4H568-bN; assay: two-hybrid library CCNG1
T24 chain: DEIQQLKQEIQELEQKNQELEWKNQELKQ

4H457-bN = target: T25, 4H457-bN; assay: two-hybrid library CCNG1
T25 chain: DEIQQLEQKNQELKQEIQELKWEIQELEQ

4H607-bN = target: T26, 4H607-bN; assay: two-hybrid library CCNG1
T26 chain: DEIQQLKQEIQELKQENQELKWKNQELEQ

4H908-bN = target: T27, 4H908-bN; assay: two-hybrid library CCNG1
T27 chain: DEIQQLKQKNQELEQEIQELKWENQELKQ

4H687-bN = target: T28, 4H687-bN; assay: two-hybrid library CCNG1
T28 chain: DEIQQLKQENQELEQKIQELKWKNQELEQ

4H72-bN = target: T29, 4H72-bN; assay: two-hybrid library CCNG1
T29 chain: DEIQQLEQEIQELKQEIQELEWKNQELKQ

4H967-bN = target: T30, 4H967-bN; assay: two-hybrid library CCNG1
T30 chain: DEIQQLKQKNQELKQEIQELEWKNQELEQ

4H754-bN = target: T31, 4H754-bN; assay: two-hybrid library CCNG1
T31 chain: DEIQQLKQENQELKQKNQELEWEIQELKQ

4H883-bN = target: T32, 4H883-bN; assay: two-hybrid library CCNG1
T32 chain: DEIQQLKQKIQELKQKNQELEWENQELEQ

4H454-bN = target: T33, 4H454-bN; assay: two-hybrid library CCNG1
T33 chain: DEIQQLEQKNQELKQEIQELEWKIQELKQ

4H4001-bN = target: T34, 4H4001-bN; assay: two-hybrid library CCNG1
T34 chain: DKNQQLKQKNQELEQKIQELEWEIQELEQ

4H918-bN = target: T35, 4H918-bN; assay: two-hybrid library CCNG1
T35 chain: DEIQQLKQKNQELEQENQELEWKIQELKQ

AP4-AA = target: T36, AP4-AA; assay: two-hybrid library CCmax; conditions: mean of both orientations
T36 chain: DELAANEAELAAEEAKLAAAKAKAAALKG

P4-AA = target: T37, P4-AA; assay: two-hybrid library CCmax; conditions: mean of both orientations
T37 chain: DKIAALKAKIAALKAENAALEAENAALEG

AP6-AA = target: T38, AP6-AA; assay: two-hybrid library CCmax; conditions: mean of both orientations
T38 chain: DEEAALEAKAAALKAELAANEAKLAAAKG

P3-AA = target: T39, P3-AA; assay: two-hybrid library CCmax; conditions: mean of both orientations
T39 chain: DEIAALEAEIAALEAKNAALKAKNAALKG

P12-AA = target: T40, P12-AA; assay: two-hybrid library CCmax; conditions: mean of both orientations
T40 chain: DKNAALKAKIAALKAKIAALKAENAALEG

P10-AA = target: T41, P10-AA; assay: two-hybrid library CCmax; conditions: mean of both orientations
T41 chain: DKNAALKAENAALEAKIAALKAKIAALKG

P9-AA = target: T42, P9-AA; assay: two-hybrid library CCmax; conditions: mean of both orientations
T42 chain: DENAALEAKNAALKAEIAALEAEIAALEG

AP3-AA = target: T43, AP3-AA; assay: two-hybrid library CCmax
T43 chain: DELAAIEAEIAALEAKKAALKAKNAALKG

AP8-AA = target: T44, AP8-AA; assay: two-hybrid library CCmax; conditions: mean of both orientations
T44 chain: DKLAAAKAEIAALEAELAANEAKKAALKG

GCN2_T = assay: two-hybrid library CCmax
P8-AA = target: T45, P8-AA; assay: two-hybrid library CCmax; conditions: mean of both orientations
T45 chain: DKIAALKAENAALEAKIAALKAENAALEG

AP5-AA = target: T46, AP5-AA; assay: two-hybrid library CCmax; conditions: mean of both orientations
T46 chain: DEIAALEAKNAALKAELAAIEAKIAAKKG

P1-AA = target: T47, P1-AA; assay: two-hybrid library CCmax; conditions: mean of both orientations
T47 chain: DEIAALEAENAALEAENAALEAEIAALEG

P2-AA = target: T48, P2-AA; assay: two-hybrid library CCmax; conditions: mean of both orientations
T48 chain: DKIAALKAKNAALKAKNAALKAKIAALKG

P7-AA = target: T49, P7-AA; assay: two-hybrid library CCmax; conditions: mean of both orientations
T49 chain: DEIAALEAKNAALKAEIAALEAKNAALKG

AP7-AA = target: T50, AP7-AA; assay: two-hybrid library CCmax; conditions: mean of both orientations
T50 chain: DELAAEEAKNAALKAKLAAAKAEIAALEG

P11-AA = target: T51, P11-AA; assay: two-hybrid library CCmax; conditions: mean of both orientations
T51 chain: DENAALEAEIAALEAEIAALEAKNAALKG

Binder: DEIAALKAENAALKAENAALKAKIAALEG [4H733-AA]
- interaction score (APC4264-AA): -1.83
- interaction score (APC9096-AA): -1.46
- interaction score (APC9319-AA): -2.02
- interaction score (APC232-AA): -1.82
- interaction score (4H733-AA): 2.16
- interaction score (4H807-AA): -1.53
- interaction score (APC4436-AA): -1.66
- interaction score (APC3645-AA): -1.25
- interaction score (APC2237-AA): -1.41
- interaction score (APC2405-AA): -1.28
- interaction score (APC7099-AA): -1.67
- interaction score (APC4011-AA): -1.54
- interaction score (APC1015-AA): -1.46
- interaction score (APC5383-AA): -2.26
- interaction score (APC8191-AA): -1.19
- interaction score (APC8910-AA): -1.37
- interaction score (APC1434-AA): -1.75
- interaction score (APC6108-AA): -1.39

Binder: DKNQQLKQKNQELEQKIQELEWEIQELEQ [4H4001-bN]
- interaction score (P6A-bS): -2.58
- interaction score (4H953-bN): -1.5
- interaction score (4H797-bN): -1.1
- interaction score (4H717-bN): -1.63
- interaction score (4H462-bN): -0.667
- interaction score (4H568-bN): -2.33
- interaction score (4H457-bN): -0.688
- interaction score (4H607-bN): -1.46
- interaction score (4H908-bN): -1.27
- interaction score (4H687-bN): -1.77
- interaction score (4H72-bN): -1.03
- interaction score (4H967-bN): -2.32
- interaction score (4H754-bN): -1.75
- interaction score (4H883-bN): -0.641
- interaction score (4H454-bN): 0.0134
- interaction score (4H4001-bN): -0.804
- interaction score (4H918-bN): -0.935

Binder: DELAAIEAEIAALEAKKAALKAKNAALKG [AP3-AA]
- interaction score (AP4-AA): -1.84
- interaction score (P4-AA): 1.61
- interaction score (AP6-AA): -1.78
- interaction score (P3-AA): -1.84
- interaction score (P12-AA): -1.03
- interaction score (P10-AA): -0.602
- interaction score (P9-AA): -1.41
- interaction score (AP3-AA): 0.89
- interaction score (AP8-AA): -1.48
- interaction score (GCN2_T): -1.8
- interaction score (P8-AA): -1.45
- interaction score (AP5-AA): -1.45
- interaction score (P1-AA): -2.22
- interaction score (P2-AA): -1.75
- interaction score (P7-AA): -1.23
- interaction score (AP7-AA): -1.93
- interaction score (P11-AA): -1.01
